Assay results: paper PMC2847220 (Nucleic Acids Research, 2009)

Target: the molecule itself
Assay: AUC

B1: Tpa1Δ20, N-terminal truncated form (residues 21–644) of S. cerevisiae Tpa1 (domain or fragment, UniProt P40032 21-644, looked up)
chain: LEEDKIKGMFNPKIWDKTFQDGLKKEIEDSQPYNWGTIHELVNDDLLRAVRKEIETEIHFTKKETDIYRVNQSGDLANLSGLDWDDLSRLPNLFKLRQILYSKQYRDFFGYVTKAGKLSGSKTDMSINTYTKGCHLLTHDDVIGSRRISFILYLPDPDRKWKSHYGGGLRLFPSILPNVPHSDPSAKLVPQFNQIAFFKVLPGFSFHDVEEVKVDKHRLSIQGWYHIPQVGEEGYIPGEEEAWVRNNTSTLAQIESNVLEDFEFPKDERNILSFHEVKHFEKMLKGDAGAKTDNTPKESMTSVISDSVKLSEAEFTYLSQYISPEHLSSKGIEKLQKQFVENSSLQIESFLNDDKSELLKKVIKQKELEQECPYHSKDVKAPWKTAIPPHKARYLYIDGKEYRNFQTEADILEALNNNDLPNFQFTKDAIKIISDASGNSRENNFDAELALIDLAVFHKSTIFKKYLALLTSLCPVSEQILIRRFRPGMDFTLATKCRFNELLKSNPDIIDAVLEGTLCLTPSAGWESGELGGYELYMMDDDEDNKQYLKEDVEDASVYRADDSGDSVLINDPPAWNTFNLVLRDESVLEFVKYVSWSAKSSRWDVKMKWDVKSCDEDGQEDEA
- stoichiometry N: 2
